Measurements reported in patent publication US20090203035A1 (University of California, published 2009).

Target: the molecule itself
Assay: gel filtration (self-association / dimerization check)

Row | Protein | binding result
1 | mOrange2 (other, Engineered monomeric orange fluorescent protein derived from mOrange (DsRed lineage); also called mOrange Q64H/F99Y/E160K/G196D; not shown: N-terminal 6xHis tag and linker encoded by the pBAD expression vector) MVSKGEENNMAIIKEFMRFKVRMEGSVNGHEFEIEGEGEGRPYEGFQTAKLKVTKGGPLPFAWDILSPHFTYGSKAYVKHPADIPDYFKLSFPEGFKWERVMNYEDGGVVTVTQDSSLQDGEFIYKVKLRGTNFPSDGPVMQKKTMGWEASSERMYPEDGALKGKIKMRLKLKDGGHYTSEVKTTYKAKKPVQLPGAYIVDIKLDITSHNEDYTIVEQYERAEGRHSTGGMDELYK | no binding
2 | TagRFP-T (other, Engineered fluorescent protein, the S158T variant of TagRFP (eqFP578 lineage); also called TagRFP S158T; not shown: N-terminal 6xHis tag and linker encoded by the pBAD expression vector) MVSKGEELIKENMHMKLYMEGTVNNHHFKCTSEGEGKPYEGTQTMRIKVVEGGPLPFAFDILATSFMYGSRTFINHTQGIPDFFKQSFPEGFTWERVTTYEDGGVLTATQDTSLQDGCLIYNVKIRGVNFPSNGPVMQKKTLGWEANTEMLYPADGGLEGRTDMALKLVGGGHLICNFKTTYRSKKPAKNLKMPGVYYVDHRLERIKEADKETYVEQHEVAVARYCDLPSKLGHKLNGMDELYK | no binding
